Experimental data from publication PMC5414288 (2017).
No end group written: not given here. *: point of attachment. HYNIC = NNc1ccc(C(=O)*)cn1

Target: EGFR (on SKOV3 cells) (Homo sapiens, UniProt P00533)
Experiment: saturation binding assay on SKOV3 cells (radioligand)

## {HYNIC}-SSSYHWYGYTPQNVI (also: 99mTc-tricine labeled) [HYNIC-SSS-GE11 peptide]
  Kd: 73 nM
